Results on 2 proteins are retold here after PMC6152284, “Cloning and Characterization of Two Iridoid Synthase Homologs from Swertia Mussotii” (Molecules : A Journal of Synthetic Chemistry and Natural …, 2017).

Substrate in data set [1]: C/C(C=O)=C\CC/C(C)=C/C=O
The data set is described as follows: purified protein. The class given is biochemical, Swertia mussotii. Particulars: co-substrate NADPH, 20 mM MOPS pH 7.0, 40 °C, substrate stock contained 8-oxoneral isomer.

Substrate in data set [2]: NC(=O)C1=CN([C@@H]2O[C@H](COP(=O)(O)OP(=O)(O)OC[C@H]3O[C@@H](n4cnc5c(N)ncnc54)[C@H](OP(=O)(O)O)[C@@H]3O)[C@@H](O)[C@H]2O)C=CC1
The data set is described as follows: purified protein. The class given is biochemical, Swertia mussotii. The settings on record: co-substrate 8-oxogeranial, 20 mM MOPS pH 7.0, 40 °C, varied: cofactor.

Usually Km stands for the substrate concentration at which the rate is half of its maximum. Broadly, the kcat is the maximal rate divided by the concentration of active sites. Usually kcat/Km stands for the second-order rate constant that governs catalysis at low substrate concentration.

B1: SmIS1 (Swertia mussotii) (protein)
chain: MSWWWKRSVQAQNLPEKNQPNGVAETAGRYESVALVVGVTGIVGSSLAQVLKLPDTPGGPWKVYGVARRPCPAWLAKFHVEYIQCDVSNTEEAKTKLSPLKDVTHIFYVSWIGSEDCETNAVMFKNILYNIIPVAPNLKHISLQTGSKHYFGIFEEGSEAVPHESPYTEDLPRLNIPNFYHDLEDILFEETAKHGLTWCVQRPALIFGFSPCSLMNIVSTLSIYATICKHEKKPLVYPGSKASWNCYVDGADADLAAEHHIWAAVDPKAKNQVFNVKNGDVFKWKNVWKMLADEFEMEMVGYIEGNEQVSMAELMKDKDGVWDEIVKKHKLEDTKLKEIAAFWFADIAFSCVDLVMSVTKSREFGFLGFRDSMKSFKSCIHKMRDFKFIP
notes: pETMALc-H, N-terminal MBP fusion with 10 His (~88 kDa); E. coli BL21(DE3), purified
In the case of B1, in “purified protein [1]” (MBP fusion), the Michaelis-Menten constant (Km) came out at 7.29 ± 1.59 µM, the catalytic constant (kcat) was 0.11 ± 0.007 s⁻¹ and the specificity constant (kcat/Km) was 15600 ± 4350 M⁻¹ s⁻¹. Moreover, in “purified protein [2]” (MBP fusion), the Km amounted to 77.94 ± 6.03 µM, the turnover number (kcat) worked out at 0.135 ± 0.01 s⁻¹ and the kcat/Km turned out to be 1732 ± 11.3 M⁻¹ s⁻¹.

B2: SmIS2 (Swertia mussotii) (protein)
chain: MSWWWTGAVAAAREKVYDERPKTSPSVALIIGVTGIVGNSLADILPLSDTPGGPWKVYGVARRPRPAWSEDHPVEYIQLDVYNAKETQSKLSPLTDITHIFWTTWANRPTEAECCQVNGAMLQNVIDAVLPNAPNLSHICIQTGHKHYIGPFETFGKIKPHETPFIEDVPRLDVPNFYYTLEDITLETCKKKEGLTWSVHRPAVIFGFSPYSMMNLIGSLCVYAAICKHENVPFTYPGTKGAWNCYSVASDADLIAEHQIWASVDPYAKNEAYNCSNGDLFKWKSLWKVLAEQFDLEYVEFDENQDYVSLAERMKDKGPVWDEIVKQNKLTPTKLEEVATFWFADVIFSGECMLDSMSKSKEHGFLGFRDTTKSLLSVVGKMKAHKIVP
notes: pET-28a, 6-His tags at N- and C-terminus (~46 kDa); E. coli BL21(DE3), purified
For B2, in “purified protein [1]” (His-tagged), the Michaelis constant (Km) turned out to be 54.37 ± 4.29 µM, the catalytic constant (kcat) was found to be 0.034 ± 0.001 s⁻¹ and the kcat/Km stood at 629 ± 75.9 M⁻¹ s⁻¹. In “purified protein [2]” (His-tagged), the Km amounted to 41.83 ± 7.2 µM, the turnover number (kcat) is 0.026 ± 0.01 s⁻¹ and the kcat/Km was determined as 628 ± 105 M⁻¹ s⁻¹.
